From US20100015126A1, “Methods of Binding of Cross-Beta Structures By Chaperones” (priority 2006, published 2010)

Experiments:
[1] = molecular target: Apolipoprotein A-I precursor (human) (UniProt P02647); experiment: BiP-Sepharose pull-down, RA synovial fluid sample 1B, 1 M NaCl eluate, MS; may be indirect
[2] = molecular target: Clusterin precursor (human) (UniProt P10909); experiment: as above
[3] = molecular target: Haptoglobin precursor (human) (UniProt P00738); experiment: as above
[4] = molecular target: Histidine-rich glycoprotein precursor (human) (UniProt P04196); experiment: as above
Histidine-rich glycoprotein precursor (human), sequence (P04196 19-525 limits assumed): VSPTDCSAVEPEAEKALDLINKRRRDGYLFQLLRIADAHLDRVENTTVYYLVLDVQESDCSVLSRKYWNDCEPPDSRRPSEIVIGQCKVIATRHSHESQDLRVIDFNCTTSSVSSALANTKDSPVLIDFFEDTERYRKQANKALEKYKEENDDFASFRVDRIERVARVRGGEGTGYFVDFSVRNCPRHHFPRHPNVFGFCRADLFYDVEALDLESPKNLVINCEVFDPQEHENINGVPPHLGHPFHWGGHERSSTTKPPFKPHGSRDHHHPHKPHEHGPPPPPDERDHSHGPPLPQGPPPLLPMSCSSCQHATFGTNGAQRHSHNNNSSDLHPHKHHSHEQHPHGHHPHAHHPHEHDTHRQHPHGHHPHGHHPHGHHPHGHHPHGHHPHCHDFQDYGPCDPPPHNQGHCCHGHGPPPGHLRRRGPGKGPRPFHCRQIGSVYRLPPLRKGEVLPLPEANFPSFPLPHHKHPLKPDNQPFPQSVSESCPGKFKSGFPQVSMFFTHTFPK

[5] = molecular target: Hypothetical protein DKFZp686I04196 (Fragment)/Immunoglobulin heavy constant gamma 2 (G2m marker)/Ig gamma-2 chain C region (human) [IgG part: P01859]; experiment: as above
Hypothetical protein DKFZp686I04196 (Fragment)/Immunoglobulin heavy constant gamma 2 (G2m marker)/Ig gamma-2 chain C region (human) [IgG part: P01859], sequence (P01859 other isoform, or with tags, fused parts or gaps limits assumed): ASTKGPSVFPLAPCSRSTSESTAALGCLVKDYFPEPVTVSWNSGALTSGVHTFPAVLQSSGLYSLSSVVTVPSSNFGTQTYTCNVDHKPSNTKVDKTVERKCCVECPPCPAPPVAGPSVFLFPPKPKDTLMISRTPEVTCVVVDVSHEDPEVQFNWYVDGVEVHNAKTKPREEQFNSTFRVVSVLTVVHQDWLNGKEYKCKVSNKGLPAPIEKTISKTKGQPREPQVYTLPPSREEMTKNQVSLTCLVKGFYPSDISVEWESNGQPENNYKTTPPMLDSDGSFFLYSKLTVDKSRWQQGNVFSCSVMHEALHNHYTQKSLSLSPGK

[6] = molecular target: IGHM protein, coagulation factor VII (serum prothrombin conversion accelerator) (human) (UniProt P08709); experiment: as above
[7] = molecular target: Isoform A of Proteoglycan-4 precursor (human) (UniProt Q92954); experiment: as above
[8] = molecular target: Isoform H17 of Myeloperoxidase precursor (human) (UniProt P05164); experiment: as above
[9] = molecular target: Single-chain Fv (Fragment), Ig heavy chain V-III region TRO (human) (UniProt P01762); experiment: as above
Single-chain Fv (Fragment), Ig heavy chain V-III region TRO (human), sequence (P01762 20-117 limits assumed): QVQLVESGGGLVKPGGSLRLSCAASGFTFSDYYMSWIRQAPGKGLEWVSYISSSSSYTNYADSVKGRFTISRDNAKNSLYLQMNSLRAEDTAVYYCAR

[10] = molecular target: Vitronectin precursor (Serum-spreading factor/S-protein) (human) (UniProt P04004); experiment: as above
Vitronectin precursor (Serum-spreading factor/S-protein) (human), sequence (P04004 20-478 limits assumed): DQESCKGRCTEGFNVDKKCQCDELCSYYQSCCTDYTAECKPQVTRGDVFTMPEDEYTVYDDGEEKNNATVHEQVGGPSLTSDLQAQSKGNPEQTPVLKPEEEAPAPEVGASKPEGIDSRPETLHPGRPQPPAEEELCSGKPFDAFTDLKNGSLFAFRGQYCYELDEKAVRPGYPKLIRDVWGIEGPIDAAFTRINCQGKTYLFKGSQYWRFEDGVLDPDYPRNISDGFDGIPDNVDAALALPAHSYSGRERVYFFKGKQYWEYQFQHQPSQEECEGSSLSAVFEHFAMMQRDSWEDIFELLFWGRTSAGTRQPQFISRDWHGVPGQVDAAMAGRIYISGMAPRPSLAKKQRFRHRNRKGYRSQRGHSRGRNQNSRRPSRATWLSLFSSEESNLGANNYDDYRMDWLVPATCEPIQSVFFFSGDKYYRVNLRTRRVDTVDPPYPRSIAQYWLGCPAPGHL

[11] = molecular target: fibronectin 1 isoform 4 preproprotein (human) (UniProt P02751); experiment: as above
[12] = molecular target: Hypothetical protein/Heat shock 70 kDa protein 5 (glucose-regulated protein, 78 kDa = GRP78 = BiP = HSPA5), as identified in eluates (human) (UniProt P11021); experiment: BiP-Sepharose pull-down, RA synovial fluid sample 1B, 1 M NaCl eluate, MS; BiP may stem from the column
Hypothetical protein/Heat shock 70 kDa protein 5 (glucose-regulated protein, 78 kDa = GRP78 = BiP = HSPA5), as identified in eluates (human), sequence (P11021 19-654 limits assumed): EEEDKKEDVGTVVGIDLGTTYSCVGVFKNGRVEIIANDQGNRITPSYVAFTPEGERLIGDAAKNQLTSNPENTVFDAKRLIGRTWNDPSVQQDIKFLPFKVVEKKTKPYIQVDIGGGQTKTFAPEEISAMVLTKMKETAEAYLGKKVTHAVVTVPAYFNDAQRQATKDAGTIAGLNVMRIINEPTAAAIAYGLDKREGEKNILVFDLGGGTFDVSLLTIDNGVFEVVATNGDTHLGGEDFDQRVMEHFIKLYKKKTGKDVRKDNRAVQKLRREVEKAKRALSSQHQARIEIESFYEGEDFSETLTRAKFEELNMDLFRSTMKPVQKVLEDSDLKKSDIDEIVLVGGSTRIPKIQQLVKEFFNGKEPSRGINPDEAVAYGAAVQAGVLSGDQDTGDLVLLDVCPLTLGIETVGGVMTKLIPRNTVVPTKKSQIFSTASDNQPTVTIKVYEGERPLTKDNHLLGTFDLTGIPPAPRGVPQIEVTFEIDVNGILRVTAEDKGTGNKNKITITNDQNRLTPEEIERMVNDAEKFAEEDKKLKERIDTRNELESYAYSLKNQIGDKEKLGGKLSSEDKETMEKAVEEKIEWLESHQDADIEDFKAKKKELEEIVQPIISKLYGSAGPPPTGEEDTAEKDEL

Haptoglobin precursor (human), sequence (P00738 19-406 limits assumed): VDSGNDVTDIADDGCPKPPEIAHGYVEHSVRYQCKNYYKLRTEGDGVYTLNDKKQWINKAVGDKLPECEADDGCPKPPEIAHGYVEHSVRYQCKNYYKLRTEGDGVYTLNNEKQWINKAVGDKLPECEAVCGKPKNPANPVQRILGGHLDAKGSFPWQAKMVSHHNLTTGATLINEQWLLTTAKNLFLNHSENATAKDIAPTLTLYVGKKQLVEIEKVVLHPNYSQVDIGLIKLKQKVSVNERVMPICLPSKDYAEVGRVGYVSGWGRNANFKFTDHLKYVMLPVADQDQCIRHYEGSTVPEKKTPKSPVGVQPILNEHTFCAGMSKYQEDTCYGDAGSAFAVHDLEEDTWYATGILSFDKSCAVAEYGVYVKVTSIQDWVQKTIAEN
recombinant human BiP with C-terminal linker, FLAG-tag and His-tag (BiP-FLAG-His), sequence (P11021 other isoform, or with tags, fused parts or gaps): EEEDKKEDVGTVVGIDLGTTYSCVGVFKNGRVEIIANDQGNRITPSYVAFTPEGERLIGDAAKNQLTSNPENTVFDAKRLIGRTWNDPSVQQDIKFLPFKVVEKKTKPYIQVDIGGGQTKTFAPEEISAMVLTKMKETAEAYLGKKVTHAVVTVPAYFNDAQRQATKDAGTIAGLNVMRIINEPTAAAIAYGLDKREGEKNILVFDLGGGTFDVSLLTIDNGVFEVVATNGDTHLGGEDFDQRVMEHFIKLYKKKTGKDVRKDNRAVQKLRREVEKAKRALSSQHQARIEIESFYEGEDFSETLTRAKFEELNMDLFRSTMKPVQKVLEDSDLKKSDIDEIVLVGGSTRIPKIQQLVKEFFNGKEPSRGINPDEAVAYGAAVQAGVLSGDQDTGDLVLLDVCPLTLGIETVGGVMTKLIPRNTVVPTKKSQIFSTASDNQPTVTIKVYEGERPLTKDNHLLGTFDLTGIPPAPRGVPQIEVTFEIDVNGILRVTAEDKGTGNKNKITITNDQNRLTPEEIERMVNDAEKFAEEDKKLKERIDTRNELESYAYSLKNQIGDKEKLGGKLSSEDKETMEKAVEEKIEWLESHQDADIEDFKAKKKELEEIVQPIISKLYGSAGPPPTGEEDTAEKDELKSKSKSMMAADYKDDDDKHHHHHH
Clusterin precursor (human), sequence (P10909 23-449 limits assumed, form in doubt): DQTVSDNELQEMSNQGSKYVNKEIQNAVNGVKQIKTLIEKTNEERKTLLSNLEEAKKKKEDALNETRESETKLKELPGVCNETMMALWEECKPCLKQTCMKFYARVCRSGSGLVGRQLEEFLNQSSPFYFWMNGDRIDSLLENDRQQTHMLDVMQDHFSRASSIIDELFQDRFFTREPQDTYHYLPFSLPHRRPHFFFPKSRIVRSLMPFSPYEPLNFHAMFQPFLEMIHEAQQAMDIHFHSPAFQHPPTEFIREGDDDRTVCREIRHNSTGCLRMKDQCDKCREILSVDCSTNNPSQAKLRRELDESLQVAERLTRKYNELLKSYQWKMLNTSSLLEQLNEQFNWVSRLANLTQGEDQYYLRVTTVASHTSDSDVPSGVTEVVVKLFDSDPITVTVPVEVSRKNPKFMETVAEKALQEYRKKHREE
Apolipoprotein A-I precursor (human), sequence (P02647 25-267 limits assumed): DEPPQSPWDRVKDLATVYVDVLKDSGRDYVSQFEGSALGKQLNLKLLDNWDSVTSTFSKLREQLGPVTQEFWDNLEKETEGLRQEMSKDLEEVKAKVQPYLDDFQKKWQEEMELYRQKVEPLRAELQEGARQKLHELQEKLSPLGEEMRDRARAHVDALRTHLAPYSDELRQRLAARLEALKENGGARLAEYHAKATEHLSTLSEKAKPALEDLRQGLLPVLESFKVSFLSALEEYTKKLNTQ

- # of unique peptides [1]: 3 peptides
- # of unique peptides [2]: 1 peptides
- # of unique peptides [3]: 1 peptides
- # of unique peptides [4]: 2 peptides
- # of unique peptides [5]: 1 peptides
- # of unique peptides [6]: 2 peptides
- # of unique peptides [7]: 2 peptides
- # of unique peptides [8]: 1 peptides
- # of unique peptides [9]: 2 peptides
- # of unique peptides [10]: 1 peptides
- # of unique peptides [11]: 10 peptides
- # of unique peptides [12]: 21 peptides
Substance: recombinant human BiP with C-terminal linker, FLAG-tag and His-tag (BiP-FLAG-His) (from UniProt P11021 19-654)
